Data from US10280218B2, “Antibodies binding to BMP4, and uses thereof” (ACADEMISCH MEDISCH CENTRUM, priority 2014, dated 2019).

T1: BMP7 (Homo sapiens, UniProt P18075)
T1 sequence (P18075 293-431): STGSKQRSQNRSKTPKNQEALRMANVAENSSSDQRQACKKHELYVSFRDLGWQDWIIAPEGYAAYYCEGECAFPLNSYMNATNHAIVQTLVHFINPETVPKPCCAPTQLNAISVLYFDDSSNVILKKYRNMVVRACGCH

T2: BMP5 (Homo sapiens, UniProt P22003)
T2 sequence (P22003 317-454): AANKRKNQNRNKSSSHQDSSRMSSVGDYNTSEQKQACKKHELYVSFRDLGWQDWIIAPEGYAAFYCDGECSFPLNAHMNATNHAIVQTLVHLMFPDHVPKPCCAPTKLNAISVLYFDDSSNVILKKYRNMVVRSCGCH

T3: BMP2 (Homo sapiens, UniProt P12643)
T3 sequence (P12643 283-396): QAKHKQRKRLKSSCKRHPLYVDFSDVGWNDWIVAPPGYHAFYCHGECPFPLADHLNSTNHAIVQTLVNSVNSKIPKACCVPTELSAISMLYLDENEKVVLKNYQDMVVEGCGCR

T4: BMP4 (Homo sapiens, UniProt P12644)
T4 sequence (P12644 293-408): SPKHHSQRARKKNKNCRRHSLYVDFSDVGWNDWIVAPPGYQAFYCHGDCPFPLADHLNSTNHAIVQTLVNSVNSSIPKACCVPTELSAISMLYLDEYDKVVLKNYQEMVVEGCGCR


Assays:
BMP7 = target: T1, BMP7; assay: BMP activity luciferase reporter assay (BRE-luciferase, ID1 promoter) in C2C12 cells; type: cell-based, mouse; details: 200 ng/ml hBMP7, 16 h; 500 ng/ml
Description: (§1) One of the most studied BMP target genes is the Inhibitor of Differentiation 1 (ID1). This is an immediate early gene that is activated by binding of the phosphorylated SMADs to its promoter region (López-Rovira et al., 2002). Thus, we employed the BMP-responsive C2C12 cells, which are stably transfected with the BRE-luciferase vector containing the BMP-Responsive-Element (the mouse ID1 promoter) cloned into the pGL3 luciferase vector (Zilberberg 2007). […] C2C12 cells were treated with the different BMPs with or without our VHHs or human Noggin at a concentration of 5 μg/ml. Luciferase activity was measured after 16 hours incubation. Most of the transcriptional data is in concordance with the results obtained with the phosphorylation of SMAD1/5/8.
(§2) C2C12 cells were plated in 96-well plates at 5×10^3 cells/well and cells were allowed to attach overnight. 100 μl of DMEM with 0.1% BSA were added in each well. VHH antibodies and human Fc-Noggin at the indicated concentrations were added at the same time. Wells with unstimulated cells were added as controls. Cells were treated in triplicate with the BMPs at the indicated concentrations for 16 hours. Luciferase activity was measured by adding 100 μl of luciferase substrate solution from the Bright-Glo™ Luciferase Assay System (Promega Benelux, Leiden, The Netherlands). After 3 minutes of incubation, luciferase activity was measured with Synergy HT Multi-Mode Microplate Reader (Biotek, Winooski, Vt., United States). Luciferase values were normalized to background activity (activity of wells with no cells) and represented as ratio to the activity of BMP-stimulated cells.
C2C12 cells were cultured in 96-well plates at 5×10^3 cells/well. […]

BMP5 = target: T2, BMP5; assay: as above; type: cell-based, mouse; set-up: purchased R&D Systems 615-BMC-020; details: 200 ng/ml hBMP5, 16 h; VHH, Noggin, Gremlin 500 ng/ml; LDN 0.5 μM; DMH1 0.2 μM
Description: as §1
as §2, with “Cells were treated in triplicate with the BMPs at the indicated concentrations for 16 hours.” left out, “Luciferase values were normalized to background activity (activity of wells with no cells) and represented as ratio to the activity of BMP-stimulated cells.” left out

BMP2 = target: T3, BMP2; assay: Phosphorylation of SMAD1/5/8 in EPC2-hTERT cells (western blot); type: cell-based; details: 100 ng/ml BMP2, 4 hours; indicated concentrations
Description: To detect phosphorylation of SMAD1/5/8 in vitro, EPC2-hTERTs were cultured in 24-well plates and activated with 100 ng/ml of BMP2, BMP4, BMP5, BMP6 or BMP7 (R&D Systems) for 4 hours with or without VHH at the indicated concentrations. After activation, each well was washed twice with ice-cold PBS and lysed with 100 μl M-PER lysis buffer (Sigma-Aldrich, MO, United States) containing Halt Protease and Phosphatase Inhibitor Cocktail (Thermo Scientific, Landsmeer, The Netherlands). Cell debris were pelleted and supernatant was collected. 15 μg of protein was then separated by 10% SDS-PAGE and transferred onto a PVDF membrane (Millipore, Amsterdam, The Netherlands). The blots were then blocked with 5% milk in Tris-buffered saline supplemented with 0.1% Tween-20 (TBST) for 1 hour at room temperature and washed in TBST before overnight incubation at 4° C. with antiphospho-SMAD1/5/8 (Cell Signalling), anti-βactin (Santa Cruz) or anti-GAPDH (Millipore) in 5% Bovine Serum Albumin (BSA). Blots were then washed with TBST and incubated for 1 hour at room temperature in 1:2000 horseradish peroxidase—conjugated secondary antibody in TBST. After a final wash with TBST, blots were incubated for 5 minutes in LumiGlow (BIOKE, Leiden, The Netherlands) and then chemiluminescence was detected using a Fuji LAS4000 illuminator (Fujifilm Medical Systems, Stamford, Conn.). Protein was quantitated with Image). […]

BMP4 = target: T4, BMP4; assay: BMP specificity of VHH antibodies (summary of binding and inhibition of BMP function); set-up: purchased R&D systems; key: ●▪: Binding and inhibition of BMP function.; ●□: Binding, but no inhibition.; ○: No binding; details: summary of SPR and functional experiments
From the text: Thus, we have generated several VH Hs that can be classified into four groups (Table 3): BMP4, BMP2/4, BMP2/4/5 and BMP2/4/5/6-specific.

Molecule | inhibition of BMP-7 signals, comparison of inhibitors (BMP7) | inhibition of BMP5 signals, comparison of inhibitors (BMP5) | inhibition of BMP2 signaling (pSMAD1/5/8), dimer compared to monomer (BMP2) | BMP4: binding and inhibition of BMP function (BMP4)
hNoggin (protein) QHYLHIRPAPSDNLPLVDLIEHPDPIFDPKEKDLNETLLRSLLGGHYDPGFMATSPPEDRPGGGGGAAGGAEDLAELDQLLRQRPSGAMPSEIKGLEFSEGLAQGKKQRLSKKLRRKLQMWLWSQTFCPVLYAWNDLGSRFWPRYVKVGSCFSKRSCSVPEGMVCKPSKSVHLTVLRWRCQRRGGQRCGWIPIQYPIISECKCSC | inhibited | greatly inhibit |  | 
C8E7: E7 linked to C8, hetero-dimer VHH bihead (protein) EVQLVESGGGLVQAGGSLRLSCAASGRTFRINDMGWYRQAPGKSRDMVARITSGGNTNYADSVKGRFTISRDNAKNTVYLQMNSLKPEDTAVYYCNADGLRFDSTRYRPFDSWGQGTQVTVSSGGGGSGGGGSEVQLVESGGGLVQAGGSLRLSCAASGSIRGFVAMAWYRQAPGKQREWVATVTNGGTLYGDSVKGRFTGSRDNAKNTVYLQMNSLKPEDTAVYYCALRQIGASGYDYWGQGTQVTVSS |  |  | better at inhibiting both BMP2 and BMP4 as compared to the E7 monomer | ●▪
